According to patent publication US20220268787A1 (JW BIOSCIENCE, published 2022):

Columns and labels:
Test in all cases: indirect ELISA, antigen coated at 1 µg/ml
[1] = biological target: T1, CRS (cysteinyl-tRNA synthetase) (UniProt P49589 1-748, limits assumed)
T1 sequence (looked up): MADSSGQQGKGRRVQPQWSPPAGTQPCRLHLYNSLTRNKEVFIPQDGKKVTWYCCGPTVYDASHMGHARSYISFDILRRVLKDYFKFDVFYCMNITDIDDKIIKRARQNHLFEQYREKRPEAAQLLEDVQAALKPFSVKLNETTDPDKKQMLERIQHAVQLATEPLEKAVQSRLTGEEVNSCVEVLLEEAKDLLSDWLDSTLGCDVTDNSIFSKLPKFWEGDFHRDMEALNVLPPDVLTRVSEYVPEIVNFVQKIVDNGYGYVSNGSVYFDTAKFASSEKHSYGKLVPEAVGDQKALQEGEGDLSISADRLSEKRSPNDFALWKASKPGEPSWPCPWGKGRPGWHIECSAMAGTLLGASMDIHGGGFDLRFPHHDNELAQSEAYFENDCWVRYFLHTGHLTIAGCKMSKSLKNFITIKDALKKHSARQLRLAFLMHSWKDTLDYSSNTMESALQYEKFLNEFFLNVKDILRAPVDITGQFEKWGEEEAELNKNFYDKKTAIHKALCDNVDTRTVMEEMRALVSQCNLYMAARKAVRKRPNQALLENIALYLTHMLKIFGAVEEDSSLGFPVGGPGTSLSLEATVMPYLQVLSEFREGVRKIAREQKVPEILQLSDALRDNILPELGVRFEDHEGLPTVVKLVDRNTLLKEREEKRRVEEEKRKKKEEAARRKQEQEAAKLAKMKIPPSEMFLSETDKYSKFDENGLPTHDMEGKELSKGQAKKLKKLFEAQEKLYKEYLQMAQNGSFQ

[2] = biological target: T2, AIMP1 (aminoacyl tRNA synthase complex-interacting multifunctional protein 1) (UniProt Q12904 1-312, limits assumed)
T2 construct: also called p43
T2 sequence (looked up): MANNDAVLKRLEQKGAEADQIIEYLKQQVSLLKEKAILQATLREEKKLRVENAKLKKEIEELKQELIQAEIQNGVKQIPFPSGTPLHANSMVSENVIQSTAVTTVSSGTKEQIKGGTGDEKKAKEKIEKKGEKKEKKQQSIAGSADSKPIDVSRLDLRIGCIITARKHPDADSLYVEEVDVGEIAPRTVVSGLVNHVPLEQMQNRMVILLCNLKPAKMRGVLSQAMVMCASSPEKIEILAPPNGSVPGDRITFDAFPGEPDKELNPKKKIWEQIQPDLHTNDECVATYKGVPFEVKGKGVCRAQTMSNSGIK

[3] = biological target: T3, GRS (glycyl tRNA synthetase) (UniProt P41250 55-739, limits assumed)
T3 sequence (looked up): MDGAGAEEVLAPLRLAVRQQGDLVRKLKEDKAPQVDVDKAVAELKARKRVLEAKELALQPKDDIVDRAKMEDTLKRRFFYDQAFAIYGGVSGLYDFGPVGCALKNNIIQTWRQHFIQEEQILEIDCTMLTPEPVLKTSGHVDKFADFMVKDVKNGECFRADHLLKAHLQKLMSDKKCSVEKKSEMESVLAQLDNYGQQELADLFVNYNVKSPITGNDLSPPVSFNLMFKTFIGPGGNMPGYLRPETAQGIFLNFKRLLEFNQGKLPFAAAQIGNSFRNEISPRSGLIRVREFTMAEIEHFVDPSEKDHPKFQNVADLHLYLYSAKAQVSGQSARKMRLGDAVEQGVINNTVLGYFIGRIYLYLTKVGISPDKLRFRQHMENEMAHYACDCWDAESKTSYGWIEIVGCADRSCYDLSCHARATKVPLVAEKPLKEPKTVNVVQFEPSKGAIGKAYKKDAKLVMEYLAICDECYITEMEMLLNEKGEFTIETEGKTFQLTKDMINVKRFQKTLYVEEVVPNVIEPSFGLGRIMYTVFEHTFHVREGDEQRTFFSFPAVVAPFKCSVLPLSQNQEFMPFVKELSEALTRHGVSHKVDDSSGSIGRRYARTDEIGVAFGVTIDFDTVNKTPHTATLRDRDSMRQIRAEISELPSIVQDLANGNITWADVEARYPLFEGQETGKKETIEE

[4] = biological target: KRS (lysyl tRNA synthetase) (UniProt Q15046 1-597, limits assumed)

Measured: binding result

KRS (lysyl tRNA synthetase), sequence (Q15046 whole entry): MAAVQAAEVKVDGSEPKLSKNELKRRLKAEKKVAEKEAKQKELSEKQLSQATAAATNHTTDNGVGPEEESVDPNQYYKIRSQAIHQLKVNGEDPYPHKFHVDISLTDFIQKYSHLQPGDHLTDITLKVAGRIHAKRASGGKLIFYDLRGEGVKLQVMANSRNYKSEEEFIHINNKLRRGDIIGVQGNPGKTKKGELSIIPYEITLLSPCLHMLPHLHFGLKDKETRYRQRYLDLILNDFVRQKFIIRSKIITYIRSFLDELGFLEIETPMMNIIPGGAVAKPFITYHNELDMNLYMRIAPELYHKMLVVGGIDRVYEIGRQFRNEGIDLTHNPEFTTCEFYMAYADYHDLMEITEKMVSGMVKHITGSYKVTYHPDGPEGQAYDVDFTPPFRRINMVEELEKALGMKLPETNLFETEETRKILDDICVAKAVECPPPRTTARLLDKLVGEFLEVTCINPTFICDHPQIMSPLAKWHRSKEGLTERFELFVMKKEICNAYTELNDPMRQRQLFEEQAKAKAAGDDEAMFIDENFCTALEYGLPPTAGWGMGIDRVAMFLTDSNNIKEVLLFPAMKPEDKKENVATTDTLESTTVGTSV

B1: 4D10G6 monoclonal antibody (antibody, V domains shown)
VH: EFQLQQSGPELVKPGASVKISCKASGYAFIDYNMNWVKQSNGKSLEWIGVINPNYGTIRYNQKFKGKATLTVDQSSSTAYMQLNSLTSEDSAVYYCAGLLRGYYAMDYWGQGTSVTVSS
VL: QAVVTQESALTTSPGETVTLTCRSSTGAVTTSNYANWVQEKPDHLFTGLIGGTNNRAPGVPARFSGSLIGDKAALTITGAQTEDEAIYFCVLWYSNHWVFGGGTKLTVL
notes: Mouse hybridoma monoclonal (Balb/c), purified from ascites on Protein A or G beads; also called the antibody according to the present invention
no binding (tested: 500 ng/ml): all assays above
